Where two headings read alike, the source gives them in different places.

Holding throughout (assay): fluorescence anisotropy
On the technique in general: Fluorescence polarisation rises when a labelled molecule tumbles more slowly, as on binding a larger partner.

Data set [1] concerns the target T1, SAMHD1 T592A (UniProt Q9Y3Z3 1-626, T592A).
Data set [2] concerns the target T2, SAMHD1 WT (UniProt Q9Y3Z3 1-626).
For data set [3], the target named is T2, SAMHD1 WT. This is another data set of the same source.
The target in data set [4] is T1, SAMHD1 T592A. The source holds these as a separate data set.
The target of data set [5] is T2, SAMHD1 WT. The source holds these as a separate data set.

T2 sequence (Q9Y3Z3 whole entry): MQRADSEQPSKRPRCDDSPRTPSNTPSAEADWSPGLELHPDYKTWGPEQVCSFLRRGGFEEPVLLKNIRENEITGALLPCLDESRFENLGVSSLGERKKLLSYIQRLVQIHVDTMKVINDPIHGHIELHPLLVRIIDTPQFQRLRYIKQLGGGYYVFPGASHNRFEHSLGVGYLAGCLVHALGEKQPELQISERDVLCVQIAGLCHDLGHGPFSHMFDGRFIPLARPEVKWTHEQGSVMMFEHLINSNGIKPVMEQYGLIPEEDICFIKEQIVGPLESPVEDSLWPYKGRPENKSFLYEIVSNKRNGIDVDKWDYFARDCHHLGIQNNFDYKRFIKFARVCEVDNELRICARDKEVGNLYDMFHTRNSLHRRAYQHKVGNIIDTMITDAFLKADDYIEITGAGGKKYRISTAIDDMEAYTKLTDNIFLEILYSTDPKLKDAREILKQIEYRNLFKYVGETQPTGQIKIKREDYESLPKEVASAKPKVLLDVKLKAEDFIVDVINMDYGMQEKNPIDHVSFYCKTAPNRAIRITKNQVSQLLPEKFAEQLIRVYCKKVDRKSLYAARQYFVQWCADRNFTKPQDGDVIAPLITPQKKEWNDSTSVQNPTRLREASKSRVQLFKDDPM
T1 sequence (Q9Y3Z3 whole entry T592A): as the sequence (Q9Y3Z3 whole entry) above, with T592A counted along it

B1: Scrambled DNA 90-mer (ssDNA)
DNA: ACTAGCTCAAGCGGGGGACACCCAGGTGTCTCCAACAGTCCGTAGATCGGACGGAGAAGAGGGGACCCCGCTAATGAGCGTGAGCAGAGA
For B1, the binding result with SAMHD1 T592A [1] and with SAMHD1 WT [2] was “no binding” in each case.

B2: HIV-1 LTR 90-mer (ssDNA)
DNA: AGCAGTGGCGCCCGAACAGGGACTTGAAAGCGAAAGTAAAGCCAGAGGAGATCTCTCGACGCAGGACTCGGCTTGCTGAAGCGCGCACGG
A word on the Kd: it is the free concentration of one partner at which half of the binding sites on the other are occupied at equilibrium, for simple one-to-one binding. Read a low Kd as a tighter complex. With B2, the figures for the Kd in the data set with SAMHD1 WT [3] and with SAMHD1 WT [5] were 242 ± 51 nM and 93 ± 8 nM, respectively. In the data set with SAMHD1 T592A [4], the binding result is listed as “no binding”.

The record behind these values is article doi:10.1101/270843.
